According to US20240391991A1, “MODULATION OF WNT SIGNALLING IN PULMONARY DISORDERS” (Surrozen Operating, Inc., priority 2021, published 2024):
Entries after “also recorded” stand apart in the source; their conditions may differ.

B1: SWAP3: FZD5,8-specific Wnt agonist (FZD5,8 and LRP6); heavy/light chains SEQ ID NO: 7 and 8 (antibody)
heavy: EVQLVESGGGLVQPGGSLRLSCAASGFTFTSYYISWVRQAPGKGLEWVAEISPYSGSTYYADSVKGRFTISADTSKNTAYLQMNSLRAEDTAVYYCALRARPPIRLHPRGSVMDYWGQGTLVTVSSGGGGSGGGGSGGGGSEVQLVESGGGLVQPGGSLRLSCAASGFNISYSYIHWVRQAPGKGLEWVASIYSSSGSTSYADSVKGRFTISADTSKNTAYLQMNSLRAEDTAVYYCARGAIDYWGQGTLVTVSSASTKGPSVFPLAPSSKSTSGGTAALGCLVKDYFPEPVTVSWNSGALTSGVHTFPAVLQSSGLYSLSSVVTVPSSSLGTQTYICNVNHKPSNTKVDKKVEPKSCDKTHTCPPCPAPEAAGGPSVFLFPPKPKDTLMISRTPEVTCVVVDVSHEDPEVKFNWYVDGVEVHNAKTKPREEQYNSTYRVVSVLTVLHQDWLNGKEYKCKVSNKALGAPIEKTISKAKGQPREPQVYTLPPSREEMTKNQVSLTCLVKGFYPSDIAVEWESNGQPENNYKTTPPVLDSDGSFFLYSKLTVDKSRWQQGNVFSCSVMHEALHNHYTQKSLSLSPGK
light: DIQMTQSPSSLSASVGDRVTITCRASQDVSTAVAWYQQKPGKAPKLLIYSASFLYSGVPSRFSGSGSGTDFTLTISSLQPEDFATYYCQQSYTTPPTFGQGTKVEIKGGGGSGGGGSGGGGSDIQMTQSPSSLSASVGDRVTITCRASQSVSSAVAWYQQKPGKAPKLLIYSASSLYSGVPSRFSGSRSGTDFTLTISSLQPEDFATYYCQQWYSSGHVLITFGQGTKVEIKRTVAAPSVFIFPPSDEQLKSGTASVVCLLNNFYPREAKVQWKVDNALQSGNSQESVTEQDSKDSTYSLSSTLTLSKADYEKHKVYACEVTHQGLSSPVTKSFNRGEC
B2: SWAP1: FZD-1,2,5,7,8-specific Wnt agonist; anti-FZD antibody with LRP6 binder; heavy/light chains SEQ ID NO: 3 and 4 (antibody)
heavy: EVQLVESGGGLVQPGGSLRLSCAASGFTFTSYYISWVRQAPGKGLEWVAEISPYSGSTYYADSVKGRFTISADTSKNTAYLQMNSLRAEDTAVYYCALRARPPIRLHPRGSVMDYWGQGTLVTVSSGGGGSGGGGSGGGGSEVQLVESGGGLVQPGGSLRLSCAASGFTFSHYTLSWVRQAPGKGLEWVSVISGDGSYTYYADSVKGRFTISSDNSKNTLYLQMNSLRAEDTAVYYCARNFIKYVFANWGQGTLVTVSSASTKGPSVFPLAPSSKSTSGGTAALGCLVKDYFPEPVTVSWNSGALTSGVHTFPAVLQSSGLYSLSSVVTVPSSSLGTQTYICNVNHKPSNTKVDKKVEPKSCDKTHTCPPCPAPEAAGGPSVFLFPPKPKDTLMISRTPEVTCVVVDVSHEDPEVKFNWYVDGVEVHNAKTKPREEQYNSTYRVVSVLTVLHQDWLNGKEYKCKVSNKALGAPIEKTISKAKGQPREPQVYTLPPSREEMTKNQVSLTCLVKGFYPSDIAVEWESNGQPENNYKTTPPVLDSDGSFFLYSKLTVDKSRWQQGNVFSCSVMHEALHNHYTQKSLSLSPGK
light: DIQMTQSPSSLSASVGDRVTITCRASQDVSTAVAWYQQKPGKAPKLLIYSASFLYSGVPSRFSGSGSGTDFTLTISSLQPEDFATYYCQQSYTTPPTFGQGTKVEIKGGGGSGGGGSGGGGSDIELTQPPSVSVAPGQTARISCSGDNIGSFYVHWYQQKPGQAPVLVIYDKSNRPSGIPERFSGSNSGNTATLTISGTQAEDEADYYCQSYANTLSLVFGGGTKLTVLGQPKAAPSVTLFPPSSEELQANKATLVCLISDFYPGAVTVAWKADSSPVKAGVETTTPSKQSNNKYAASSYLSLTPEQWKSHRSYSCQVTHEGSTVEKTVAPTECS
B3: SWAP2: FZD1,2,7-specific Wnt agonist; anti-FZD antibody with LRP6 binder; heavy/light chains SEQ ID NO: 5 and 6 (antibody)
heavy: EVQLVESGGGLVQPGGSLRLSCAASGFTFTSYYISWVRQAPGKGLEWVAEISPYSGSTYYADSVKGRFTISADTSKNTAYLQMNSLRAEDTAVYYCALRARPPIRLHPRGSVMDYWGQGTLVTVSSGGGGSGGGGSGGGGSEVQLVESGGGLVQPGGSLRLSCAASGFNISSSYIHWVRQAPGKGLEWVAYIYSSYGSTYYADSVKGRFTISADTSKNTAYLQMNSLRAEDTAVYYCARASWYALDYWGQGTLVTVSSASTKGPSVFPLAPSSKSTSGGTAALGCLVKDYFPEPVTVSWNSGALTSGVHTFPAVLQSSGLYSLSSVVTVPSSSLGTQTYICNVNHKPSNTKVDKKVEPKSCDKTHTCPPCPAPEAAGGPSVFLFPPKPKDTLMISRTPEVTCVVVDVSHEDPEVKFNWYVDGVEVHNAKTKPREEQYNSTYRVVSVLTVLHQDWLNGKEYKCKVSNKALGAPIEKTISKAKGQPREPQVYTLPPSREEMTKNQVSLTCLVKGFYPSDIAVEWESNGQPENNYKTTPPVLDSDGSFFLYSKLTVDKSRWQQGNVFSCSVMHEALHNHYTQKSLSLSPGK
light: DIQMTQSPSSLSASVGDRVTITCRASQDVSTAVAWYQQKPGKAPKLLIYSASFLYSGVPSRFSGSGSGTDFTLTISSLQPEDFATYYCQQSYTTPPTFGQGTKVEIKGGGGSGGGGSGGGGSDIQMTQSPSSLSASVGDRVTITCRASQSVSSAVAWYQQKPGKAPKLLIYSASSLYSGVPSRFSGSRSGTDFTLTISSLQPEDFATYYCQQYWYGVAPITFGQGTKVEIKRTVAAPSVFIFPPSDEQLKSGTASVVCLLNNFYPREAKVQWKVDNALQSGNSQESVTEQDSKDSTYSLSSTLTLSKADYEKHKVYACEVTHQGLSSPVTKSFNRGEC

Tests used:
[1] = tested on: mouse AT2 organoid cultures; experiment: Mouse AT2 cell organoid expansion, CellTiter-Glo assay; format: cell-based; settings: SWAP in combination with RSPO2; C59 present; FIG. 9
Procedure: (§1) In all of the AT2 cell organoid experiments, the Wnt signaling inhibitor, C59, was used to prevent endogenous secretion of Wnt ligands. […] AT2 cell organoid growth was assessed with the CellTiter Glo assay.

[2] = tested on: acute bleomycin mouse model; experiment: Bleomycin-induced acute lung injury (fibrosis) mouse model; format: in vivo; settings: agent alone
Text: The acute lung injury (single bleomycin treatment; FIG. 1) and chronic intermittent/low dose bleomycin mouse models (FIG. 2) were used to determine the therapeutic effects of Wnt antagonist and agonist (administered concurrently or sequentially or individually) in combination with or without anti-fibrotic drugs (e.g., pirfenidone and nintedanib) to assess effects on anti-fibrotic and improved respiratory functions (see, e.g., Degryse, A. et al. (2010) Am J Physiol Lung Cell Mol Physiol. 299:442-52). Improvement of fibrosis was observed upon treatment with a WNT agonist, SWAP5 (see, e.g., FIG. 7, FIG. 10). Specifically, bleomycin was administered intratracheally to the mice at day 0, and animals were treated twice weekly with an agonist approach—combination of SWAP5 (FZD1,2,5,7,8 multi-FZD-specific SWAP) and RSPO2 (combo)—for two weeks starting at day 7 until termination at day 21. […] Improvement of fibrosis was also observed upon treatment with a Wnt agonist or the Wnt signaling enhancer RSPO2 alone (FIG. 10).

human AT2 cell organoid [3] = experiment: Human AT2 organoid size (diameter, microscopy); format: cell-based; settings: in the absence of RSPO; for human AT2 cell organoid growth as organoid size (diameter): C59 present, FIG. 6; for numbers of organoids and organoid size by microscopy: FIG. 8
human AT2 cell organoid [4] = experiment: Human AT2 cell organoid growth, CellTiter Glo assay; format: cell-based; settings: for effectiveness on human AT2 organoid expansion versus Chir99021: 10 nM concentration; for effectiveness on human AT2 organoid expansion versus Chir99021 / human AT2 organoid culture outgrowth/viability (CellTiter Glo): in the absence of RSPO, FIG. 8; for human AT2 organoid culture outgrowth/viability (CellTiter Glo): SWAP alone; for self-renewal and expansion of human AT2 cells: summary of organoid results
Procedure: For ex vivo studies, 3D organoid cultures (see, e.g., Zacharias, W. et al. (2018) Nature 555:251-257 and Barkauskas et al. (2017) Development 144:986-997) were constructed by combining primary human lung fibroblasts from healthy, pulmonary fibrosis, or COPD patients with alveolar epithelial cells (AT2 and AEP cells) from patients. Organoids were cultured in SAGM medium with growth factor free Matrigel. The Wnt antagonist and agonist were added in a sequential or concurrent manner to determine the effect on the fibroblast/myofibroblast proliferation, matrix production, alveolar epithelial cell proliferation and AT1/AT2 cell fate trans-differentiation. Alveolar organoids can also be cultured directly from human distal lung cells including purified AT2 cells (Kobayashi et al., (2020) supra).
as §1

Molecule | expansion of mouse AT2 organoid cultures (CellTiter-Glo) [1] | percentage of lung area affected by fibrosis ([2]; dosed four times between week 1 and week 3, vs anti-GFP, FIGS. 10-11) | fibrosis score (Modified Ashcroft) ([2]; dosed four times between week 1 and week 3, vs anti-GFP, FIGS. 10-12) | percent of ACTA2 in the lung ([2]; FIG. 11D) | immune cell infiltration / inflammation (H&E based pathology scores) ([2]; FIG. 11E) | IL6 in lung tissue (Meso Scale Discovery) ([2]; FIG. 11F) | IL1B in lung tissue (Meso Scale Discovery) ([2]; FIG. 11G) | GRO/CXCL1 in lung tissue (Meso Scale Discovery) ([2]; FIG. 11H) | cytokine levels ([2]; lung tissue, FIG. 11) | human AT2 cell organoid growth as organoid size (diameter) (human AT2 cell organoid [3]) | numbers of organoids and organoid size by microscopy (human AT2 cell organoid [3]) | effectiveness on human AT2 organoid expansion versus Chir99021 (human AT2 cell organoid [4]) | human AT2 organoid culture outgrowth/viability (CellTiter Glo) (human AT2 cell organoid [4]; C59 present) | self-renewal and expansion of human AT2 cells (human AT2 cell organoid [4]) | human AT2 cell organoid growth (CellTiter Glo), compared with Chir99021 (human AT2 cell organoid [4]; SWAP in combination with RSPO1, C59 present, FIGS. 5A and 5B)
B1 | led to the expansion of mouse AT2 organoid cultures | reduced the fibrosis score, the percentage of lung affected, immune cell infiltration, and cytokine levels in the acute bleomycin mouse model in a dose-dependent manner; also recorded: reduce the area of the lung that is fibrotic | reduced the fibrosis score, the percentage of lung affected, immune cell infiltration, and cytokine levels in the acute bleomycin mouse model in a dose-dependent manner; also recorded: lower the severity of fibrosis | reduction of fibrosis | reduced the fibrosis score, the percentage of lung affected, immune cell infiltration, and cytokine levels in the acute bleomycin mouse model in a dose-dependent manner; also recorded: reduction in inflammation | reduction in cytokines | reduction in cytokines | reduction in cytokines | reduced the fibrosis score, the percentage of lung affected, immune cell infiltration, and cytokine levels in the acute bleomycin mouse model in a dose-dependent manner | expand AT2 organoids | increased numbers of organoids and organoid size | more effective than the small molecule Wnt pathway activator, Chir99021 | induced human AT2 organoid culture outgrowth/viability as assessed by the CellTiter Glo assay in a concentration-dependent manner; also recorded: induce human AT2 cell organoid expansion alone (in the absence of RSPO) in a dose-dependent manner | promotes the self-renewal and expansion of human AT2 cells | –
B2 | led to the expansion of mouse AT2 organoid cultures | – | – | – | – | – | – | – | – | – | – | – | – | promotes the self-renewal and expansion of human AT2 cells | enhancement of human AT2 cell organoid growth that surpassed the growth observed upon treatment with the small molecule Wnt signaling activator, Chir99021; also recorded: more effective than the small molecule, CHIR99021
B3 | led to the expansion of mouse AT2 organoid cultures | – | – | – | – | – | – | – | – | expand AT2 organoids | increased numbers of organoids and organoid size | more effective than the small molecule Wnt pathway activator, Chir99021 | induced human AT2 organoid culture outgrowth/viability as assessed by the CellTiter Glo assay in a concentration-dependent manner; also recorded: induce human AT2 cell organoid expansion alone (in the absence of RSPO) in a dose-dependent manner | promotes the self-renewal and expansion of human AT2 cells | –
